Results published in article PMC10817169, “The universal suppressor mutation restores membrane budding defects in the HSV-1 nuclear egress complex by stabilizing the oligomeric lattice” (PLOS Pathogens, 2024).

Target: T1, UL31 1-306 R229L_(UL31) (HSV-1, UniProt P10215 1-306, R229L)
T1 construct: also called SUP_(UL31); UL31 chain of NEC220-SUP_(UL31)
T1 sequence: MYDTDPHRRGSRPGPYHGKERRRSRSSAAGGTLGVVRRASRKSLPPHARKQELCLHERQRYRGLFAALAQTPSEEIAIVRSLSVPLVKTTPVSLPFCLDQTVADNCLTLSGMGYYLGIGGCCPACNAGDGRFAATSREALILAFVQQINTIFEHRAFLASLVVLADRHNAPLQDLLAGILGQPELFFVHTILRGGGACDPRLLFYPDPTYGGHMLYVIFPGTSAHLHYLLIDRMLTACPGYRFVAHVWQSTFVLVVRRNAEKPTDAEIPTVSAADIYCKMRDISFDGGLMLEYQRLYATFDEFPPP
Assay: cryo-EM structure; cryoET with sub-tomographic averaging of membrane-bound coats; 1 mg/mL NEC with 400 and 800 nm LUVs (POPC:POPS:POPA = 3:1:1), 30 min on ice
Details: both partners purified

B1: UL34 1-220 D35A_(UL34)/E37A_(UL34) (domain or fragment)
chain: MAGLGKPYTGHPGDAFEGLVQRIRLIVPSTLRGGAGAAGPYSPSSLPSRCAFQFHGHDGSDESFPIEYVLRLMNDWAEVPCNPYLRIQNTGVSVLFQGFFHRPHNAPGGAITPERTNVILGSTETTGLSLGDLDTIKGRLGLDARPMMASMWISCFVRMPRVQLAFRFMGPEDAGRTRRILCRAAEQAITRRRRTRRSREAYGAEAGLGVAGTGFRARGD
notes: also called DN_(UL34); UL34 chain of NEC220-DN_(UL34)/SUP_(UL31); not shown: GST, N-terminal, cleaved
  binding result: binds
